pKd: −log10 of the molar value.
Columns and labels:
[1] = molecular target: RSV A fusion glycoprotein (F), virus of the neutralisation assays of Tables 54 and 57 (RSV A); test: cell-based or functional assay
[2] = molecular target: RSV F A G446E (RSV A, strain A2) (UniProt P03420); test: FACS, % binding to RSV F A variants
[3] = molecular target: RSV F A S433P (RSV A, strain A2) (UniProt P03420); test: FACS, % binding to RSV F A variants
[4] = molecular target: RSV F A S443P-K445N (RSV A, strain A2) (UniProt P03420); test: FACS, % binding to RSV F A variants
[5] = molecular target: RSV F A, A2 Ref (RSV A, strain A2) (UniProt P03420); test: FACS, % binding to RSV F A variants
[6] = molecular target: RSV F A S433P-G446E (RSV A, strain A2) (UniProt P03420); test: FACS, % binding to RSV F A variants
[7] = molecular target: RSV F A L203I (RSV A, strain A2) (UniProt P03420); test: FACS, % binding to RSV F A variants
[8] = molecular target: RSV F A N208Y-N671I (RSV A, strain A2) (UniProt P03420); test: FACS, % binding to RSV F A variants
RSV F B, B Ref (RSV B) = test: FACS, % binding to RSV F B variants
RSV F B S443P (RSV B) = test: FACS, % binding to RSV F B variants
[9] = molecular target: RSV F B K68N-N201S (RSV B); test: FACS, % binding to RSV F B variants
RSV F B N201S (RSV B) = test: FACS, % binding to RSV F B variants
[10] = molecular target: RSV F B K68N-N208S (RSV B); test: FACS, % binding to RSV F B variants
RSV F B N208D (RSV B) = test: FACS, % binding to RSV F B variants
RSV F B N208S (RSV B) = test: FACS, % binding to RSV F B variants
[11] = molecular target: RSV fusion glycoprotein (RSV-F) of the RSV used in the neutralization of Table 33 (respiratory syncytial virus, strain not stated); test: cell-based or functional assay
[12] = molecular target: fusion glycoprotein (F) of the MPV used in the neutralization of Table 34 (metapneumovirus); test: cell-based or functional assay
[13] = molecular target: RSV fusion glycoprotein (RSV-F) of RSV-B (B1) (respiratory syncytial virus B, strain B1) (UniProt O36634); test: cell-based or functional assay
[14] = molecular target: fusion glycoprotein of RSV A2 BPR-344-00 (BEI NR-12149) (respiratory syncytial virus A2) (UniProt P03420); test: cell-based or functional assay
[15] = molecular target: RSV-B B9320 F protein (RSV B, strain B9320); test: cell-based or functional assay
[16] = molecular target: fusion glycoprotein of Human Metapneumovirus-GFP CAN97-83 (Vira Tree M121) (human metapneumovirus CAN97-83) (UniProt Q6WB98); test: cell-based or functional assay
[17] = molecular target: fusion glycoprotein of the RSV used in the neutralization assay of Example 1 (respiratory syncytial virus (strain not stated)); test: cell-based or functional assay
[18] = molecular target: fusion glycoprotein (F) of RSV A/A2/61 (respiratory syncytial virus A/A2/61) (UniProt P03420); test: cell-based or functional assay
[19] = molecular target: MPV fusion glycoprotein (MPV-F) of MPV-A2 (CAN97-83) (human metapneumovirus, strain CAN97-83) (UniProt Q6WB98); test: cell-based or functional assay
[20] = molecular target: fusion glycoprotein of the MPV D280 used in the neutralization assay of Example 3 (metapneumovirus (strain not stated)); test: cell-based or functional assay
[21] = molecular target: MPV fusion glycoprotein (MPV-F) of MPV-B2 (TN/96-213) (human metapneumovirus, strain TN/96-213); test: cell-based or functional assay
[22] = molecular target: fusion glycoprotein of RSV B1 BPR-348-00 (BEI NR-4052) (respiratory syncytial virus B1) (UniProt O36634); test: cell-based or functional assay
[23] = molecular target: fusion glycoprotein (F) of RSV B/9727 (respiratory syncytial virus B/9727); test: cell-based or functional assay
[24] = molecular target: RSV A Randall fusion glycoprotein (F) (RSV A, strain Randall); test: cell-based or functional assay
[25] = molecular target: fusion glycoprotein of Human metapneumovirus-TN/96-213 (BEI NR-22243) (human metapneumovirus TN/96-213); test: cell-based or functional assay
[26] = molecular target: RSV fusion glycoprotein (RSV-F) of RSV-A (A2) (respiratory syncytial virus A, strain A2) (UniProt P03420); test: cell-based or functional assay
[27] = molecular target: RSV fusion glycoprotein (RSV-F) (respiratory syncytial virus (strain not stated)); test: SPR; sensors loaded with F protein, mAb in solution
[28] = molecular target: RSV fusion glycoprotein (RSV-F), pre-fusion conformation, recombinant protein loaded on sensors (respiratory syncytial virus (RSV), strain not stated); test: ELISA-type titration, OD 405 nm, on Pre-F
[29] = molecular target: MPV fusion glycoprotein with the D280N mutation (MPV-F N280) (metapneumovirus); test: SPR; F protein loaded on streptavidin sensors, mAb in solution
[30] = molecular target: MPV fusion glycoprotein without the D280N mutation (MPV-F D280) (metapneumovirus); test: as above
[31] = molecular target: RSV fusion glycoprotein (RSV-F) (respiratory syncytial virus); test: as above
[32] = molecular target: RSV B 9719/09 fusion glycoprotein (F) (RSV B, strain 9719/09); test: cell-based or functional assay
[33] = molecular target: RSV fusion glycoprotein (RSV-F) (respiratory syncytial virus (strain not stated)); test: SPR; sensors loaded with RSV-F, mAb in solution (Experiment 2)

Sequence of MPE8 (antibody) (VH): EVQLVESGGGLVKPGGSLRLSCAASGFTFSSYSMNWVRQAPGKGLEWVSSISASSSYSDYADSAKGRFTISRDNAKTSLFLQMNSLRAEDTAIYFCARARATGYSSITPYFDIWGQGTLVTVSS
Sequence of MPE8 (antibody) (VL): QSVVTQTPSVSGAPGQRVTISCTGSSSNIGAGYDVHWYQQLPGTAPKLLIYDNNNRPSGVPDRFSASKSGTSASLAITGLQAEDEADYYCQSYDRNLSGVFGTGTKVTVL
Sequence of palivizumab (antibody) (VH): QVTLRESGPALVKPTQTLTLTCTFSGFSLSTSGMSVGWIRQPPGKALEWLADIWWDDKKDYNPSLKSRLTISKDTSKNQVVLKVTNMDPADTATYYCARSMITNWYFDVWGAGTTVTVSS
Sequence of palivizumab (antibody) (VL): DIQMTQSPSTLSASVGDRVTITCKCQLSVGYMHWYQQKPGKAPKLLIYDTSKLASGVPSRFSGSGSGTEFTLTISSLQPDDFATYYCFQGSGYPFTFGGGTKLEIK

## MK-1654-rIgG1m17,1-YTE (antibody)
[1]
  IC50, neutralization of RSVA: 0.00461 µg/mL
[2]
  % binding: 0.049%
[3]
  % binding: 7.14%
[4]
  % binding: 0.11%
[5]
  % binding: 83.7%
[6]
  % binding: 1.04%
[7]
  % binding: 62.6%
[8]
  % binding: 43.1%
RSV F B, B Ref (RSV B)
  % binding: 63.4%
RSV F B S443P (RSV B)
  % binding: 22.6%
[9]
  % binding: 66.7%
RSV F B N201S (RSV B)
  % binding: 64.7%
[10]
  % binding: 65.7%
RSV F B N208D (RSV B)
  % binding: 63.1%
RSV F B N208S (RSV B)
  % binding: 64.3%

## MPE8 (antibody)
[11]
  IC50 (ng/mL) in neutralization against RSV: 12.2 ng/mL
[12]
  IC50 (ng/mL) in neutralization against MPV: 11 ng/mL
[13]
  Neutralization (IC50, ng/ml): 3.7 ng/mL
[14]
  RSV and MPV Neutralization (IC50 ng/ml): 6.01 ng/mL
[15]
  RSV IC50 (ng/ml), neutralization of B/9320: 3.2 ng/mL
[16]
  RSV and MPV Neutralization (IC50 ng/ml): 12.6 ng/mL
[17]
  RSV Neutralization - IC50: 0.0153 µg/mL
[18]
  RSV IC50 (ng/ml), neutralization of A/A2: 126 ng/mL
[19]
  Neutralization (IC50, ng/ml): 12.6 ng/mL
[20]
  MPV D280 Neutralization - IC50: 0.0069 µg/mL
[21]
  Neutralization (IC50, ng/ml): 23.6 ng/mL
[22]
  RSV and MPV Neutralization (IC50 ng/ml): 3.71 ng/mL
[23]
  RSV IC50 (ng/ml), neutralization of B/9727: 16.9 ng/mL
[24]
  RSV IC50 (ng/ml), neutralization of A/Randall: 22 ng/mL
[25]
  RSV and MPV Neutralization (IC50 ng/ml): 23.6 ng/mL
[26]
  Neutralization (IC50, ng/ml): 6 ng/mL
[27]
  pKd: 12.00
[28]
  EC50 (read off the curve): 0.03 µg/mL
[29]
  pKd: 7.00
[30]
  pKd: 8.60
[31]
  pKd: 12.00

## Palivizumab (antibody)
[32]
  IC50, virus neutralization: 0.0786 µg/mL
[24]
  IC50, virus neutralization: 0.122 µg/mL

## palivizumab (antibody)
[17]
  RSV Neutralization - IC50: 0.156 µg/mL
[31]
  pKd: 8.59
[33]
  pKd: 8.59

## palivizumab-rIgG1 (antibody)
[11]
  IC50 (ng/mL) in neutralization against RSV: 55.2 ng/mL
[12]
  IC50 (ng/mL) in neutralization against MPV: > 2000 ng/mL

— patent publication US20260028391A1
